# T1: mouse MAdCAM expressed on cells (mouse, UniProt Q61826 22-405)
# T1 construct: whole, on cells
# T1 sequence (looked up): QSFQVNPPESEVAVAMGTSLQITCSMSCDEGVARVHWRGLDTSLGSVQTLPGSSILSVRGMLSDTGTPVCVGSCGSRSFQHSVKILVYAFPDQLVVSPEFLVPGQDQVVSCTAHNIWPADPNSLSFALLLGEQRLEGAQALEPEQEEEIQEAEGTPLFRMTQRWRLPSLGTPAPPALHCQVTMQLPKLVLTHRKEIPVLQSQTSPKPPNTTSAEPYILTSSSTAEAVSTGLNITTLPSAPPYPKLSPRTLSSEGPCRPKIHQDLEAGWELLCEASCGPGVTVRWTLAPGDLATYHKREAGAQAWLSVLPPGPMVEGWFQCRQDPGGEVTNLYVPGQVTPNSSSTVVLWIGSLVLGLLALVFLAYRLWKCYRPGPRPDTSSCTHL
# Target: T1, mouse MAdCAM expressed on cells
# Assay: cell binding
row,binding result,Binder
1,no binding,"MAdCAM antibody Clone ID 62 of Table 7 (IgG) (antibody, V domains shown, IgG format) VH: QVQLVQSGAEVKKPGASVKVSCKASGYTFTSYDINWVRQAPGQGLEWMGWINPNSGTTGYAQKFQGRVTMTRDTSTSTVYMELSSLRSEDTAVYYCARSPYYYYGMDVWGQGTTVTVSS VL: DIQMTQSPSSLSASVGDRVTITCRASHFISRWVAWYQQKPGKAPKLLIYAASTLQSGVPSRFSGSGSGTDFTLTISSLQPEDFATYYCQQSYSGISFGPGTKVDIK"
2,no binding,"MAdCAM antibody Clone ID 63 of Table 7 (IgG) (antibody, V domains shown, IgG format) VH: EVQLLESGGGLVQPGGSLRLSCAASGFTFNNYGMNWVRQAPGKGLEWVSRINSDGSSTSYADSVKGRFTISRDNSKNTLYLQMNSLRAEDTAVYYCARGAYYYYYMDVWGQGTLVTVSS VL: EIVMTQSPATLSVSPGERATLSCRASQSVSGSYLAWYQQKPGQAPRLLIYATSSRASGIPARFSGSGSGTEFTLTISSLQSEDFAVYYCQQYYSGLTFGQGTKVEIK"
3,no binding,"MAdCAM antibody Clone ID 66 of Table 7 (IgG) (antibody, V domains shown, IgG format) VH: QVQLVQSGAEVKKPGASVKVSCKASGYTFTGHYMHWVRQAPGQGLEWMGIINPSGGSTSYAQKFQGRVTMTRDTSTSTVYMELSSLRSEDTAVYYCARDGAWFGEEYYYGMDVWGQGTTVTVSS VL: DIQMTQSPSSLSASVGDRVTITCRASQGISNWLAWYQQKPGKAPKLLIYDASNLETGVPSRFSGSGSGTDFTLTISSLQPEDFATYYCQQYYSFPLYTFGQGTKVEIK"
4,no binding,"MAdCAM antibody Clone ID 69 of Table 7 (IgG) (antibody, V domains shown, IgG format) VH: QVQLVQSGAEVKKPGASVKVSCKASGYTFTSYYMHWVRQAPGQGLEWMGIIDPSGGSTSYAQKFQGRVTMTRDTSTSTVYMELSSLRSEDTAVYYCAREEWSSGGVGYFDYWGQGTLVTVSS VL: DIQMTQSPSSLSASVGDRVTITCRASQGISSYLAWYQQKPGKAPKLLIYATSSLQTGVPSRFSGSGSGTDFTLTISSLQPEDFATYYCQQTYSIPITFGQGTRLEIK"
5,no binding,"MAdCAM antibody Clone ID 71 of Table 7 (IgG) (antibody, V domains shown, IgG format) VH: QVQLVQSGAEVKKPGASVKVSCKASGYTFTSYYMHWVRQAPGQGLEWMGIINPSGGSTSYAQKFQGRVTMTRDTSTSTVYMELSSLRSEDTAVYYCARDSVAGTGGRYYGMDVWGQGTLVTVSS VL: DIQMTQSPSSLSASVGDRVTITCRASQGISNYFAWYQQKPGKAPKLLIYAASSLQGGVPSRFSGSGSGTDFTLTISSLQPEDFATYYCQQSYSLPYTFGQGTKLEIK"
6,no binding,"MAdCAM antibody Clone ID 32 of Table 7 (IgG) (antibody, V domains shown, IgG format) VH: QVQLVQSGAEVKKPGASVKVSCKASGYTLTTWYMYWVRQAPGQGLEWMGWINPNRGATNYAQKFQGRVTMTRDTSTSTVYMELSSLRSEDTAVYYCAKGDLWGAMDVWGQGTLVTVSS VL: DIQMTQSPSSLSASVGDRVTITCRASDNIGSWLAWYQQKPGKAPKLLIYAASSLQSGVPSRFSGSGSGTDFTLTISSLQPEDFATYYCQQGYSTPPTFGQGTKVEIK"
7,no binding,"MAdCAM antibody Clone ID 70 of Table 7 (IgG) (antibody, V domains shown, IgG format) VH: QVQLVQSGAEVKKPGASVKVSCKASGYPFTDYYMHWVRQAPGQGLEWMGWIKPNSGDTEYAQKFQGRVTMTRDTSTSTVYMELSSLRSEDTAVYYCARDRFVGKPDYYYYGMDVWGQGTMVTVSS VL: DIQMTQSPSSLSASVGDRVTITCRASQSISVWLAWYQQKPGKAPKLLIYAASSLQSGVPSRFSGSGSGTDFTLTISSLQPEDFATYYCQQSYDTPYTFGQGTKLEIK"
8,no binding,"MAdCAM antibody Clone ID 53 of Table 7 (IgG) (antibody, V domains shown, IgG format) VH: QVQLVQSGAEVKKPGASVKVSCKASGYTFTSYYMHWVRQAPGQGLEWMGWMNPNSGNTGYAQKFQGRVTMTRDTSTSTVYMELSSLRSEDTAVYYCAREGLGYCTNGVCWNYYGMDVWGQGTLVTVSS VL: DIQMTQSPSSLSASVGDRVTITCRASQGISSWLAWYQQKPGKAPKLLIYGASSLQSGVPSRFSGSGSGTDFTLTISSLQPEDFATYYCQQSYSTPYTFGQGTKVEIK"
9,no binding,"MAdCAM antibody Clone ID 61 of Table 7 (IgG) (antibody, V domains shown, IgG format) VH: QVQLVQSGAEVKKPGASVKVSCKASGDTFTGYYIHWVRQAPGQGLEWMGWINPNSGGTNYAQKFQGRVTMTRDTSTSTVYMELSSLRSEDTAVYYCARSGLWLGSYYGMDVWGQGTLVTVSS VL: DIQMTQSPSSLSASVGDRVTITCRASQTISIWLAWYQQKPGKAPKLLIYDASTLQSGVPSRFSGSGSGTDFTLTISSLQPEDFATYYCQQYSSYPLTFGQGTKVEIK"
10,no binding,"MAdCAM antibody Clone ID 45 of Table 7 (IgG) (antibody, V domains shown, IgG format) VH: EVQLVESGGGLVKPGGSLRLSCAASGFTFGDYAMSWVRQAPGKGLEWVSYISGDIGYTNYAAPVKGRFTISRDDSKNTLYLQMNSLKTEDTAVYYCARDVAATGNWYFDLWGRGTLVTVSS VL: not shown"

# The next lines start with the binder.
row,Binder,binding result
1,"MAdCAM antibody Clone ID 55 of Table 7 (IgG) (antibody, V domains shown, IgG format) VH: EVQLLESGGGLVQPGGSLRLSCAASGFTFDDFAMHWVRQAPGKGLEWVSGISGNGDSRYYADSVKGRFTISRDNSKNTLYLQMNSLRAEDTAVYYCARDASYGGNYGMDVWGQGTTVTVSS VL: DIQMTQSPSSLSASVGDRVTITCQASQDIRNYLNWYQQKPGKAPKLLIYKASTLESGVPSRFSGSGSGTDFTLTISSLQPEDFATYYCQQANSFPLTFGPGTKVDIK",no binding
2,"MAdCAM antibody Clone ID 64 of Table 7 (IgG) (antibody, V domains shown, IgG format) VH: EVQLLESGGGLVQPGGSLRLSCAASGFTFSNSDMNWVRQAPGKGLEWVAHIWNDGSQKYYADSVKGRFTISRDNSKNTLYLQMNSLRAEDTAVYYCARDRTDPGYSSAMDVWGQGTTVTVSS VL: DIQMTQSPSSLSASVGDRVTITCRASQDIRNYLGWYQQKPGKAPKLLIYDASSLETGVPSRFSGSGSGTDFTLTISSLQPEDFATYYCQQATSLPLTFGGGTKVEIK",no binding
3,"MAdCAM antibody Clone ID 54 of Table 7 (IgG) (antibody, V domains shown, IgG format) VH: QVQLVQSGAEVKKPGSSVKVSCKASGGTLSRYGVSWVRQAPGQGLEWMGGIIPIFGTTNYAQKFQGRVTITADESTSTAYMELSSLRSEDTAVYYCARDRVYYDSSGYPTWYFDLWGRGTLVTVSS VL: EIVMTQSPATLSVSPGERATLSCRASQSVSSSYLAWYQQKPGQAPRLLIYGASTRATGIPARFSGSGSGTEFTLTISSLQSEDFAVYYCQQYGSSPITFGQGTKVEIK",no binding
4,"MAdCAM antibody Clone ID 35 of Table 7 (IgG) (antibody, V domains shown, IgG format) VH: QVQLVQSGAEVKKPGASVKVSCKASGYTFTGYYIHWVRQAPGQGLEWMGWMNPNSGNTGYAQKFQGRVTMTRDTSTSTVYMELSSLRSEDTAVYYCARDPGFLGYSSGGSSYDGWFDPWGQGTLVTVSS VL: DIQMTQSPSSLSASVGDRVTITCRASQSISSYLHWYQQKPGKAPKLLIYAASSLQSGVPSRFSGSGSGTDFTLTISSLQPEDFATYYCQQSYTAPYTFGQGTKLEIK",no binding
5,"MAdCAM antibody Clone ID 56 of Table 7 (IgG) (antibody, V domains shown, IgG format) VH: EVQLVESGGGLVKPGGSLRLSCAASGFTFSSYWMSWVRQAPGKGLEWVSAIGTGGGTYYAAPVKGRFTISRDDSKNTLYLQMNSLKTEDTAVYYCAREWLVPYYGMDVWGQGTTVTVSS VL: DIQMTQSPSSLSASVGDRVTITCRASQSISRWLAWYQQKPGKAPKLLIYGASNLQSGVPSRFSGSGSGTDFTLTISSLQPEDFATYYCQQSYSTPWTFGQGTKVEIK",no binding
6,"MAdCAM antibody Clone ID 12 of Table 7 (IgG) (antibody, V domains shown, IgG format) VH: QVQLVQSGAEVKKPGASVKVSCKASGYTLTTWYMYWVRQAPGQGLEWMGWINPNRGATNYAQKFQGRVTMTRDTSTSTVYMELSSLRSEDTAVYYCAKGDLWGAMDVWGQGTLVTVSS VL: DIQMTQSPSSLSASVGDRVTITCRASDNIGSWLAWYQQKPGKAPKLLIYAASSLQSGVPSRFSGSGSGTDFTLTISSLQPEDFATYYCQQGYSTPPTFGQGTKVEIK",no binding
7,"MAdCAM antibody Clone ID 67 of Table 7 (IgG) (antibody, V domains shown, IgG format) VH: QVQLVQSGAEVKKPGASVKVSCKASGYTFTGYYMHWVRQAPGQGLEWMGMIYPRDGSTSYAQKFQGRVTMTRDTSTSTVYMELSSLRSEDTAVYYCAMTGWGYGMDVWGKGTTVTVSS VL: DIQMTQSPSSLSASVGDRVTITCRASQGINNYLAWYQQKPGKAPKLLIYDASTLQSGVPSRFSGSGSGTDFTLTISSLQPEDFATYYCQQSYSAPPTFGQGTKLEIK",no binding
8,"MAdCAM antibody Clone ID 40 of Table 7 (IgG) (antibody, V domains shown, IgG format) VH: QVQLVQSGAEVKKPGASVKVSCKASGYTLTTWYMYWVRQAPGQGLEWMGWINPNRGATNYAQKFQGRVTMTRDTSTSTVYMELSSLRSEDTAVYYCAKGDLWGAMDVWGQGTLVTVSS VL: DIQMTQSPSSLSASVGDRVTITCRASDNIGSWLAWYQQKPGKAPKLLIYAASSLQSGVPSRFSGSGSGTDFTLTISSLQPEDFATYYCQQGYSTPPTFGQGTKVEIK",no binding
9,"MAdCAM antibody Clone ID 72 of Table 7 (IgG) (antibody, V domains shown, IgG format) VH: QVQLVQSGAEVKKPGASVKVSCKASGYTFTSYYMHWVRQAPGQGLEWMGVINPIGGTTTYAQKFQGRVTMTRDTSTSTVYMELSSLRSEDTAVYYCASGAPSYYYYGMDVWGQGTLVTVSS VL: DIQMTQSPSSLSASVGDRVTITCRASQSISSYLNWYQQKPGKAPKLLIYGTSYLATGVPSRFSGSGSGTDFTLTISSLQPEDFATYYCQQSYSTPLTFGQGTKVEIK",no binding
10,"MAdCAM antibody Clone ID 33 of Table 7 (IgG) (antibody, V domains shown, IgG format) VH: QVQLVQSGAEVKKPGASVKVSCKASGYTLTTWYMYWVRQAPGQGLEWMGWINPNRGATNYAQKFQGRVTMTRDTSTSTVYMELSSLRSEDTAVYYCAKGDLWGAMDVWGQGTTVTVSS VL: DIQMTQSPSSLSASVGDRVTITCRASDNIGSWLAWYQQKPGKAPKLLIYAASSLQSGVPSRFSGSGSGTDFTLTISSLQPEDFATYYCQQGYSTPPTFGQGTKVEIK",no binding
11,"MAdCAM antibody Clone ID 68 of Table 7 (IgG) (antibody, V domains shown, IgG format) VH: EVQLLESGGGLVQPGGSLRLSCAASGFTFGDYAMSWVRQAPGKGLEWVAVVSYDGTNKYYADSVKGRFTISRDNSKNTLYLQMNSLRAEDTAVYYCAKDICSSTSCYFDLWGRGTLVTVSS VL: DIQMTQSPSSLSASVGDRVTITCRASQNINNYVNWYQQKPGKAPKLLIYDASNLETGVPSRFSGSGSGTDFTLTISSLQPEDFATYYCQQANSFPPTFGQGTRLEIK",no binding

# — US20200392228A1 (PANDION OPERATIONS, published 2020)
